Assay results reported in US20240383958A1, “APELIN RECEPTOR AGONISTS AND USES THEREOF” (VISTERRA, INC., priority 2023, published 2024).

Tests used:
[1] = Proteolysis during production detected using mass spectroscopy; type: physicochemical; settings: proteolytic stability
From the text: Proteolysis during production was detected using mass spectroscopy, which provides insights into the proteolytic stability of the apelin receptor agonists.

APJ-eGFP fusion protein = experiment: Internalization assay, CHO-M1 cells expressing APJ-eGFP, high-content imaging; type: cell-based; parameters: key: 0: No Internalization; >1000; 2: 100-1000; 3: 10-100; 4: <10; settings: lowest concentration at which maximum internalization was observed; 0.914 nM to 2000 nM
Procedure: In this example, the internalization of exemplary apelin receptor agonist was assessed. CHO-M1 cells expressing an APJ-eGFP fusion protein were stained and plated in a 96-well plate. Apelin receptor agonists were serially diluted and added to the wells at concentrations ranging from 0.914 nM to 2000 nM. The cells were later imaged using an Operetta CLS™ high-content analysis system. APJ-eGFP signal was measured in the membrane and cytoplasmic region, and the ratio of membrane signal to total signal was calculated (E ratio). An internalization score was assigned based on the lowest concentration of the compound at which maximum internalization was observed. The internalization score for each apelin receptor agonist was plotted against the EC50 values for cAMP signaling and beta-arrestin signaling as shown in FIG. 2 and FIG. 3.

[2] = target: T1, APJ-eGFP fusion protein on CHO-M1 cells (UniProt P35414 1-380); experiment: cell-based or functional assay
T1 sequence (looked up): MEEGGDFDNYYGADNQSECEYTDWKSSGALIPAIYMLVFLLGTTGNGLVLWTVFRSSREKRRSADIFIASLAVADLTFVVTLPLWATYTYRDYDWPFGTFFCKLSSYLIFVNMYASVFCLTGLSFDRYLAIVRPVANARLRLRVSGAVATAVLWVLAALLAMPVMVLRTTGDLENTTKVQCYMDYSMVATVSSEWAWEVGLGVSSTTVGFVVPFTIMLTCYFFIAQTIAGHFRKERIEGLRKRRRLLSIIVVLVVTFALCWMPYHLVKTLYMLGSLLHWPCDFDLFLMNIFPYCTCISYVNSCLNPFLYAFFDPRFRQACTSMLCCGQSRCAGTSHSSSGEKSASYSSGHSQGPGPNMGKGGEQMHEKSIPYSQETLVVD

[3] = target: T2, apelin receptor (AGTRL1) on CHO-K1 cells (UniProt P35414 1-380, limits assumed); experiment: cell-based or functional assay
T2 sequence (looked up): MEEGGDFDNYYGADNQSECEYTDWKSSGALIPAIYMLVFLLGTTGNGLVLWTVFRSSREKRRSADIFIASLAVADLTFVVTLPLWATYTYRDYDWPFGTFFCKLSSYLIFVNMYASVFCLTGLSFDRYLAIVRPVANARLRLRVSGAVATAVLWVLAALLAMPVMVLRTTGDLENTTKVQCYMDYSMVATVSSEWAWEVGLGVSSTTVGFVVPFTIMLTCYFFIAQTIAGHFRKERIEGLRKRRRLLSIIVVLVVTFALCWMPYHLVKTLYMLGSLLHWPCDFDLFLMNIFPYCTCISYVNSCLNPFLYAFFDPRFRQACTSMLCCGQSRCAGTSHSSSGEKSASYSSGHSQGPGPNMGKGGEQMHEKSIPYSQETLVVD

B1: APL-M: Leader-Fc-linker fusion of apelin analogue QRPRLSHWGPMAW (K8W, P12A, F13W) (protein)
chain: MRAWIFFLLCLAGRALADKTHTSPPSPAPEAAGGPSVFLFPPKPKDTLMISRTPEVTCVVVDVSHEDPEVKFNWYVDGVEVHNAKTKPREEQYNSTYRVVSVLTVLHQDWLNGKEYKCKVSNKALPAPIEKTISKAKGQPREPQVYTLPPSREEMTKNQVNLTCLVKGFYPSDIAVEWESNGQPENNYKTTPPVLDSDGSFFLNSTLTVDKSRWQQGNVFSCSVMHEALHNHYTQKSLSLSPGKGGGGSGGGGSGGGGSQRPRLSHWGPMAW
Proteolysis During Production? [1]: No
Internalization Score (APJ-eGFP fusion protein): 0

B2: APL-A: Monovalent IgG1 Fc fused via GGGGSGGGGSGGGGS linker to wild-type apelin-13 QRPRLSHKGPMPF (protein)
chain: MRAWIFFLLCLAGRALADKTHTSPPSPAPEAAGGPSVFLFPPKPKDTLMISRTPEVTCVVVDVSHEDPEVKFNWYVDGVEVHNAKTKPREEQYNSTYRVVSVLTVLHQDWLNGKEYKCKVSNKALPAPIEKTISKAKGQPREPQVYTLPPSREEMTKNQVNLTCLVKGFYPSDIAVEWESNGQPENNYKTTPPVLDSDGSFFLNSTLTVDKSRWQQGNVFSCSVMHEALHNHYTQKSLSLSPGKGGGGSGGGGSGGGGSQRPRLSHKGPMPF
Proteolysis During Production? [1]: Yes
Internalization Score (APJ-eGFP fusion protein): 2 (100-1000)

B3: APL-A (Fc fusion)
chain: DKTHTSPPSPAPEAAGGPSVFLFPPKPKDTLMISRTPEVTCVVVDVSHEDPEVKFNWYVDGVEVHNAKTKPREEQYNSTYRVVSVLTVLHQDWLNGKEYKCKVSNKALPAPIEKTISKAKGQPREPQVYTLPPSREEMTKNQVNLTCLVKGFYPSDIAVEWESNGQPENNYKTTPPVLDSDGSFFLNSTLTVDKSRWQQGNVFSCSVMHEALHNHYTQKSLSLSPGKGGGGSGGGGSGGGGSQRPRLSHKGPMPF
Internalization Score [2]: 2

B4: APL-I (Fc fusion)
chain: DKTHTSPPSPAPEAAGGPSVFLFPPKPKDTLMISRTPEVTCVVVDVSHEDPEVKFNWYVDGVEVHNAKTKPREEQYNSTYRVVSVLTVLHQDWLNGKEYKCKVSNKALPAPIEKTISKAKGQPREPQVYTLPPSREEMTKNQVNLTCLVKGFYPSDIAVEWESNGQPENNYKTTPPVLDSDGSFFLNSTLTVDKSRWQQGNVFSCSVMHEALHNHYTQKSLSLSPGKGGGGSGGGGSGGGGSQRPRLSHKGPAAW
Internalization Score [2]: 1

B5: APL-M (Fc fusion)
chain: DKTHTSPPSPAPEAAGGPSVFLFPPKPKDTLMISRTPEVTCVVVDVSHEDPEVKFNWYVDGVEVHNAKTKPREEQYNSTYRVVSVLTVLHQDWLNGKEYKCKVSNKALPAPIEKTISKAKGQPREPQVYTLPPSREEMTKNQVNLTCLVKGFYPSDIAVEWESNGQPENNYKTTPPVLDSDGSFFLNSTLTVDKSRWQQGNVFSCSVMHEALHNHYTQKSLSLSPGKGGGGSGGGGSGGGGSQRPRLSHWGPMAW
Internalization Score [2]: 0

B6: APL-G (Fc fusion)
chain: DKTHTSPPSPAPEAAGGPSVFLFPPKPKDTLMISRTPEVTCVVVDVSHEDPEVKFNWYVDGVEVHNAKTKPREEQYNSTYRVVSVLTVLHQDWLNGKEYKCKVSNKALPAPIEKTISKAKGQPREPQVYTLPPSREEMTKNQVNLTCLVKGFYPSDIAVEWESNGQPENNYKTTPPVLDSDGSFFLNSTLTVDKSRWQQGNVFSCSVMHEALHNHYTQKSLSLSPGKGGGGSGGGGSGGGGSQRPRLSHKGPMAF
Internalization Score [2]: 3

B7: APL-H (Fc fusion)
chain: DKTHTSPPSPAPEAAGGPSVFLFPPKPKDTLMISRTPEVTCVVVDVSHEDPEVKFNWYVDGVEVHNAKTKPREEQYNSTYRVVSVLTVLHQDWLNGKEYKCKVSNKALPAPIEKTISKAKGQPREPQVYTLPPSREEMTKNQVNLTCLVKGFYPSDIAVEWESNGQPENNYKTTPPVLDSDGSFFLNSTLTVDKSRWQQGNVFSCSVMHEALHNHYTQKSLSLSPGKGGGGSGGGGSGGGGSQRPRLSHKGPMHW
Internalization Score [2]: 0

B8: APL-B (Fc fusion)
chain: DKTHTSPPSPAPEAAGGPSVFLFPPKPKDTLMISRTPEVTCVVVDVSHEDPEVKFNWYVDGVEVHNAKTKPREEQYNSTYRVVSVLTVLHQDWLNGKEYKCKVSNKALPAPIEKTISKAKGQPREPQVYTLPPSREEMTKNQVNLTCLVKGFYPSDIAVEWESNGQPENNYKTTPPVLDSDGSFFLNSTLTVDKSRWQQGNVFSCSVMHEALHNHYTQKSLSLSPGKGGGGSGGGGSGGGGSQRPRLSHKGPMVF
Internalization Score [2]: 2

B9: APL-K (Fc fusion)
chain: DKTHTSPPSPAPEAAGGPSVFLFPPKPKDTLMISRTPEVTCVVVDVSHEDPEVKFNWYVDGVEVHNAKTKPREEQYNSTYRVVSVLTVLHQDWLNGKEYKCKVSNKALPAPIEKTISKAKGQPREPQVYTLPPSREEMTKNQVNLTCLVKGFYPSDIAVEWESNGQPENNYKTTPPVLDSDGSFFLNSTLTVDKSRWQQGNVFSCSVMHEALHNHYTQKSLSLSPGKGGGGSGGGGSGGGGSQRPRLQHKNPMAF
Internalization Score [2]: 0

B10: APL-F (Fc fusion)
chain: DKTHTSPPSPAPEAAGGPSVFLFPPKPKDTLMISRTPEVTCVVVDVSHEDPEVKFNWYVDGVEVHNAKTKPREEQYNSTYRVVSVLTVLHQDWLNGKEYKCKVSNKALPAPIEKTISKAKGQPREPQVYTLPPSREEMTKNQVNLTCLVKGFYPSDIAVEWESNGQPENNYKTTPPVLDSDGSFFLNSTLTVDKSRWQQGNVFSCSVMHEALHNHYTQKSLSLSPGKGGGGSGGGGSGGGGSQRPRLSHKGPAPY
Internalization Score [2]: 1

B11: APL-J (Fc fusion)
chain: DKTHTSPPSPAPEAAGGPSVFLFPPKPKDTLMISRTPEVTCVVVDVSHEDPEVKFNWYVDGVEVHNAKTKPREEQYNSTYRVVSVLTVLHQDWLNGKEYKCKVSNKALPAPIEKTISKAKGQPREPQVYTLPPSREEMTKNQVNLTCLVKGFYPSDIAVEWESNGQPENNYKTTPPVLDSDGSFFLNSTLTVDKSRWQQGNVFSCSVMHEALHNHYTQKSLSLSPGKGGGGSGGGGSGGGGSQRPRLSHKGPAAY
Internalization Score [2]: 1

B12: APL-E (Fc fusion)
chain: DKTHTSPPSPAPEAAGGPSVFLFPPKPKDTLMISRTPEVTCVVVDVSHEDPEVKFNWYVDGVEVHNAKTKPREEQYNSTYRVVSVLTVLHQDWLNGKEYKCKVSNKALPAPIEKTISKAKGQPREPQVYTLPPSREEMTKNQVNLTCLVKGFYPSDIAVEWESNGQPENNYKTTPPVLDSDGSFFLNSTLTVDKSRWQQGNVFSCSVMHEALHNHYTQKSLSLSPGKGGGGSGGGGSGGGGSQRPRLSHKGPHPF
Internalization Score [2]: 1

B13: APL-L (Fc fusion)
chain: DKTHTSPPSPAPEAAGGPSVFLFPPKPKDTLMISRTPEVTCVVVDVSHEDPEVKFNWYVDGVEVHNAKTKPREEQYNSTYRVVSVLTVLHQDWLNGKEYKCKVSNKALPAPIEKTISKAKGQPREPQVYTLPPSREEMTKNQVNLTCLVKGFYPSDIAVEWESNGQPENNYKTTPPVLDSDGSFFLNSTLTVDKSRWQQGNVFSCSVMHEALHNHYTQKSLSLSPGKGGGGSGGGGSGGGGSQRPRLQHKNPMAW
Internalization Score [2]: 0

B14: ELA-A (Fc fusion)
chain: DKTHTSPPSPAPEAAGGPSVFLFPPKPKDTLMISRTPEVTCVVVDVSHEDPEVKFNWYVDGVEVHNAKTKPREEQYNSTYRVVSVLTVLHQDWLNGKEYKCKVSNKALPAPIEKTISKAKGQPREPQVYTLPPSREEMTKNQVNLTCLVKGFYPSDIAVEWESNGQPENNYKTTPPVLDSDGSFFLNSTLTVDKSRWQQGNVFSCSVMHEALHNHYTQKSLSLSPGKGGGGSGGGGSGGGGSKLRKHNCLQRRCMPLHSRVPFP
ERK EC50 [3]: 0.19 nM
beta-Arrestin EC50 (nM) Exp. 1 [3]: 90.1 nM
beta-Arrestin EC50 (nM) Exp. 2 [3]: 42.6 nM
cAMP EC50 (nM) Exp. 1 [3]: 0.85 nM
cAMP EC50 (nM) Exp. 2 [3]: 1.4 nM
Internalization Score [2]: 3

B15: ELA-B (Fc fusion)
chain: DKTHTSPPSPAPEAAGGPSVFLFPPKPKDTLMISRTPEVTCVVVDVSHEDPEVKFNWYVDGVEVHNAKTKPREEQYNSTYRVVSVLTVLHQDWLNGKEYKCKVSNKALPAPIEKTISKAKGQPREPQVYTLPPSREEMTKNQVNLTCLVKGFYPSDIAVEWESNGQPENNYKTTPPVLDSDGSFFLNSTLTVDKSRWQQGNVFSCSVMHEALHNHYTQKSLSLSPGKGGGGSGGGGSGGGGSKLNKHNCLQRRCMPLHSRVPFP
ERK EC50 [3]: 0.92 nM
beta-Arrestin EC50 (nM) Exp. 1 [3]: 1120 nM
beta-Arrestin EC50 (nM) Exp. 2 [3]: 59.9 nM
cAMP EC50 (nM) Exp. 1 [3]: 0.349 nM
cAMP EC50 (nM) Exp. 2 [3]: 1.5 nM
Internalization Score [2]: 3
